Reference: patent US20160264684A1, “GLYCAN-INTERACTING COMPOUNDS AND METHODS OF USE” (SIAMAB THERAPEUTICS, INC., priority 2013, published 2016)

Assays:
[1] = test system: E3-STn cells; test: E3-STn transfected murine breast tumor allograft model, tumor volume; type: in vivo, mouse; details: 7G9-1A8 25 mg/kg ip twice weekly 3 weeks, Paclitaxel daily 5 days
Method: 3 test articles were evaluated during the study.
Standard deviation values are listed in parenthesis.

[2] = E3-STn allograft model, complete blood count (CBC); type: in vivo, mouse; set-up: Red blood cells / White blood cells: unit not given here; details: CBC at end of study, antibody-treated mice
Method: At the end of the study, a complete blood count (CBC) was obtained for 5 mice treated with antibody as well as 3 mice treated with vehicle control. Blood was collected from all mice via terminal cardiac puncture and processed for plasma. Blood was placed in EDTA microtainer tubes (BD & Co., Franklin Lakes, N.J.) then centrifuged. Plasma layers were then removed and snap frozen in cryo vials (Thermo-Fisher Scientific, Rochester, N.Y.) and stored at −80° C. until analysis. Analysis was carried out to look for levels of a variety of factors.

[3] = Pathological evaluation of organs (H&E); type: in vivo, mouse
Method: At the end of the study described in Example 22, three mice from the vehicle control group and five mice that received 7G9-1A8 were chosen at random for post-study pathology assessment. Brain, colon, intestine, heart, kidney, liver, lung, mandibular salivary gland, pancreas, spleen, stomach, adrenal gland and thyroid gland organs were collected from each mouse. The organs were fixed in formalin (VWR; Radnor, Pa.) for about 48 hours, transferred to 70% ethanol (Sigma-Aldrich; St. Louis, Mo.), and then processed for standard H&E staining.
The H&E stained tissue slides were examined for pathology review. Liver sections from each animal had multifocal inflammation with or without concomitant hepatocellular necrosis. The histo-pathological changes were minimal to mild in severity. There was no appreciable difference in the morphology of lesions among vehicle control group mice and mice that received 7G9-1A8.

[4] = mouse, in vivo

B1: 7G9-1A8: 7G9-1A8 IgG2b κ antibody; heavy chain variable domain SEQ ID NO 12, light chain SEQ ID NO 9 (antibody, V domains shown)
VH: QVQLKESGPGLVAPSQNLSITCTVSGFSLTSYGVNWVRQPPGKGLEWLGVIWGDGSTNYHSALISRLIISKENSKSQVFLKLNSLQTNDTATYYCTKGFVYWGQGTLVTVSA
VL: QIVLTQSPAIMSASPGEKVTMTCSASSSVSYMHWYQQKSGTSPKRWIFDTSKLASGVPARFSGSGSGTSYSLTISSMEAEDAATYYCQQWSSNLLTFGAGTKLELK
[1]; day 1 of treatment
  Average Tumor Volume: 112.4 mm^3
[1]; day 4 of treatment
  Average Tumor Volume: 148.7 mm^3
[1]; day 6 of treatment
  Average Tumor Volume: 161.9 mm^3
[1]; day 8 of treatment
  Average Tumor Volume: 152.8 mm^3
[1]; day 11 of treatment
  Average Tumor Volume: 136.3 mm^3
[1]; day 13 of treatment
  Average Tumor Volume: 118.4 mm^3
[1]; day 15 of treatment
  Average Tumor Volume: 105.1 mm^3
[1]; day 18 of treatment
  Average Tumor Volume: 99.5 mm^3
[1]; day 20 of treatment
  Average Tumor Volume: 91.7 mm^3
[1]; day 22
  Average Tumor Volume: 105.2 mm^3
[1]; day 26
  Average Tumor Volume: 102.8 mm^3
[1]; day 27
  Average Tumor Volume: 107.4 mm^3
[1]; day 29
  Average Tumor Volume: 147.1 mm^3
[1]; day 32
  Average Tumor Volume: 160.6 mm^3
[1]; day 34
  Average Tumor Volume: 164.7 mm^3
[1]; day 36
  Average Tumor Volume: 212.1 mm^3
[1]; day 39
  Average Tumor Volume: 206.6 mm^3
[1]; day 41
  Average Tumor Volume: 235.3 mm^3
[2]
  % Lymphocytes: 44.4%
  % Monocytes: 4.6%
  % Neutrophils (Segmented): 51.0%
  Hematocrit: 46.9%
  Hemoglobin: 16.0 g/dL
  Lymphocytes: 5.6 10^9/L
  Mean Corpuscular Hemoglobin: 16.2 pg
  Mean Corpuscular Hemoglobin Concentration: 34.2 g/dL
  Mean Corpuscular Volume: 47.4 fL
  Mean platelet volume: 7.4 fL
  Monocytes: 0.7 10^9/L
  Neutrophils: 7.6 10^9/L
  Platelet Cell Distribution Width: 32.2%
  Platelet count: 712.2 10^3
  Red Cell Distribution Width: 19.0%
  Red blood cells: 9.9
[2]; blood by terminal cardiac puncture
  White blood cells: 13.9
[3]; 5 treated, 3 vehicle mice
  liver histo-pathology vs vehicle control group: no significant difference between the groups
[3]; seen in two vehicle control mice
  neutrophil aggregation in the muscularis mucosa of the stomach: not observed
[4]
  weight gain over the course of treatment as compared to vehicle control: higher percent gain in weight
